In patent US20250339570A1:

Target: CD46 (UniProt P15529)
Assay: magnetic bead radioligand binding assay; CD46 on Ni-NTA beads, 10 ng radioimmunoconjugate, bead activity/standard

Target binding fraction, > 75%:
225Ac-Macropa-PEG0-YS5 (antibody)
225Ac-Macropa-PEG4-YS5 (antibody)
225Ac-Macropa-PEG8-YS5 (antibody)
